The source of these data is patent US20230134571A1 (INTERNATIONAL AIDS VACCINE INITIATIVE, published 2023).

Among the targets are HIV Env, isolate CNE30 (HIV); HIV Env, isolate TRO.11 (HIV); HIV Env, isolate CNE17 (HIV).
What all share (assay): cell-based or functional assay
Experiment [1] concerns the target HIV Env, isolate 231965.c01 (HIV).
Experiment [2] concerns the target HIV Env, isolate HIV-0013095-2.11 (HIV).
Experiment [3] deals with HIV Env, isolate TRJO4551.58 (HIV).
In experiment [4] the target is HIV Env, isolate Ce0682_E4 (HIV).
Experiment [5] concerns the target HIV Env, isolate P0402_C2_11 (HIV).
Experiment [6] has as its target HIV Env, isolate 89-F1_2_25 (HIV).
The target in experiment [7] is HIV Env, isolate A07412M1.vrc12 (HIV).
In experiment [8] the target is HIV Env, isolate Du156.12 (HIV).
Experiment [9] deals with HIV Env, isolate Ce1172_H1 (HIV).
The target of experiment [10] is HIV Env, isolate 6244_13_B5_4576 (HIV).
The target in experiment [11] is HIV Env, isolate QH0692.42 (HIV).
The target in experiment [12] is HIV Env of isolate 89-F1_2_25 (clade CD) (HIV).
In experiment [13] the target is HIV Env of isolate C3347.c11 (clade AE) (HIV).
For experiment [14], the target named is HIV Env of isolate 6240_08_TA5_4622 (clade B) (HIV).
For experiment [15], the target named is HIV Env of isolate BJOX009000.02.4 (clade AE) (HIV).
For experiment [16], the target named is HIV Env of isolate 1056_10_TA11_1826 (clade B) (HIV).
The target in experiment [17] is HIV Env of isolate 6952.v1.c20 (clade CD) (HIV).
In experiment [18] the target is HIV Env of isolate R1166.c01 (clade AE) (HIV).
Experiment [19] deals with HIV Env of isolate Ce1172_H1 (clade C) (HIV).
The target in experiment [20] is HIV Env of isolate X1632_S2_B10 (clade G) (HIV).
Experiment [21] deals with HIV Env of isolate T278-50 (clade AG) (HIV).
For experiment [22], the target named is HIV Env of isolate Q461.e2 (clade A) (HIV).
The target of experiment [23] is HIV Env of isolate BJOX010000.06.2 (clade AE) (HIV).
The target in experiment [24] is HIV Env of isolate Ce704809221_1B3 (clade C) (HIV).
For experiment [25], the target named is HIV Env of isolate CAP45.2.00.G3 (clade C) (HIV).
In experiment [26] the target is HIV Env of isolate 3817.v2.c59 (clade CD) (HIV).
Experiment [27] deals with HIV Env of isolate SC422661.8 (clade B) (HIV).
For experiment [28], the target named is HIV Env of isolate SC05_8C11_2344 (clade B) (HIV).
Experiment [29] has as its target HIV Env of isolate 1394C9G1(Rev-) (clade C) (HIV).
The target in experiment [30] is HIV Env of isolate Ce0682_E4 (clade C) (HIV).
The target in experiment [31] is HIV Env of isolate T235-47 (clade AG) (HIV).
Experiment [32] addresses HIV Env of isolate T251-18 (clade AG) (HIV).
Experiment [33] concerns the target HIV Env of isolate 1012_11_TC21_3257 (clade B) (HIV).
Experiment [34] addresses HIV Env of isolate 1006_11_C3_1601 (clade B) (HIV).
Experiment [35] addresses HIV Env of isolate 6480.v4.c25 (clade CD) (HIV).
Experiment [36] addresses HIV Env of isolate T257-31 (clade AG) (HIV).
For experiment [37], the target named is HIV Env of isolate Q259.d2.17 (clade A) (HIV).
Experiment [38] deals with HIV Env of isolate CNE21 (clade BC) (HIV).

Where only a bound is given, the exact number is not on record here.

B1: ePGDM9 (antibody, V domains shown)
VH: QAQLVQSGPEVRKPGTSVKVSCKNPGNTLTTYDLHWVRQVPGQGLQWMGWISHEGDKKVIVERFKAKVTIDWDRSTNTAYLQLSGLTSEDTAVYYCAKGSKHRLRDYALYDEDGALNWAVDVDYLANLEFWGQGTAVTVSS
VL: DIVLTQSPLSLSVTPGESASISCKSSQSLIHGDRNNYLAWYVQKPGRSPQLLIDLASERASGVPDRFSGSGSRKDFTLKISRVETEDVGTYYCMQGRESPWTFGQGTKVDIK
Consider B1, for which the “IC80 (µg/ml) with constrains” value was 0.037 µg/mL in [1]; greater than 100 µg/mL in experiment [2]; greater than 100 µg/mL in [3]; 0.022 µg/mL in experiment [4]; 0.003 µg/mL in [5]; greater than 100 µg/mL with HIV Env, isolate CNE30. For the same molecule, the “IC80 (µg/ml) with constrains” value in the experiment with HIV Env, isolate TRO.11 was determined as 0.652 µg/mL; in the experiment with HIV Env, isolate CNE17, 0.01 µg/mL; in experiment [6], 0.004 µg/mL; in experiment [7] it was 0.103 µg/mL; in [8], 0.016 µg/mL; in experiment [9], 0.108 µg/mL. The results for the “IC80 (µg/ml) with constrains” value in experiment [10] and in experiment [11] were 50.2 µg/mL and greater than 100 µg/mL, respectively.

B2: PGDM1400 (antibody, V domains shown)
VH: QVHLTQSGPEVRKPGTSVKVSCKAPGNTLKTYDLHWVRSVPGQGLQWMGWISHEGDKKVIVERFKAKVTIDWDRSTNTAYLQLSGLTSGDTAVYYCAKGSKHRLRDYALYDDDGALNWAVDVDYLSNLEFWGQGTAVTVSS
VL: DFVLTQSPHSLSVTPGESASISCKSSHSLIHGDRNNYLAWYVQKPGRSPQLLIYLASSRASGVPDRFSGSGSDKDFTLKISRVETEDVGTYYCMQGRESPWTFGQGTKVDIK
Take B2: the “IC50 (µg/ml) with constrains” value in [12] came out at 0.003 µg/mL; in [13], 0.015 µg/mL; in experiment [14], 52.4 µg/mL; in experiment [15], 1.1 µg/mL; in experiment [16], 3.38 µg/mL; in [17], 1.76 µg/mL. Moreover, the “IC50 (µg/ml) with constrains” value in experiment [18] amounted to 1.48 µg/mL; in experiment [19] it was 0.218 µg/mL; in experiment [20], 0.034 µg/mL; in experiment [21] it was 5.41 µg/mL; in [22], 0.143 µg/mL; in [23], 0.871 µg/mL. In addition, the “IC50 (µg/ml) with constrains” value in experiment [24] was 0.32 µg/mL; in experiment [25], 0.001 µg/mL; in experiment [26] it was greater than 100 µg/mL; in experiment [27], 15.7 µg/mL; in experiment [28], 4.46 µg/mL; in experiment [29], 0.003 µg/mL. For the same molecule, the “IC50 (µg/ml) with constrains” value in [30] is 0.009 µg/mL; in experiment [31], 0.011 µg/mL; in experiment [32], greater than 100 µg/mL; in experiment [33] it was 0.076 µg/mL; in experiment [34], 1.86 µg/mL; in [35], greater than 100 µg/mL. Also, the figures for the “IC50 (µg/ml) with constrains” value in experiment [36], in [37] and in experiment [38] were 0.138 µg/mL, 0.068 µg/mL and 0.003 µg/mL, respectively. Also, the “IC80 (µg/ml) with constrains” value in experiment [13] is 0.061 µg/mL; in experiment [15] it was 4.42 µg/mL; in experiment [18], 5.92 µg/mL; in experiment [22], 0.572 µg/mL; in [23], 3.48 µg/mL; in experiment [31], 0.044 µg/mL. Besides, the “IC80 (µg/ml) with constrains” value in [32] was greater than 100 µg/mL; in experiment [36] it was 0.552 µg/mL; in experiment [37], 0.271 µg/mL.

B3: ePGDM13 (antibody, V domains shown)
VH: QAQLVQSGPEVRKPGTSVKVSCKNPGNTLTTYDLHWVRQVPGQGLQWMGWISHEGDKKVIVERFKAKVTIDWDRSTNTAYLQLSGLTSEDTAVYYCAKGSKHRLRDYALYDEDGALNWAVDVDYLANLEFWGQGTAVTVSS
VL: DIVLTQSPLSLSVTPGESASISCKSSHSLQHGDRNNYLAWYVQKPGRSPQLLLDLASERASGVPDRFSGSGSEKDFTLKISRVETEDVGTYYCMQGRESPWTFGQGTKVDIK
On to B3, for which the “IC80 (µg/ml) with constrains” value in experiment [1] is 0.058 µg/mL; in experiment [2], greater than 100 µg/mL; in experiment [3] it was greater than 100 µg/mL; in experiment [4] it was 0.043 µg/mL; in experiment [5], 0.006 µg/mL; in the experiment with HIV Env, isolate CNE30 it was greater than 100 µg/mL. Further, the “IC80 (µg/ml) with constrains” value with HIV Env, isolate TRO.11 is 1.41 µg/mL; with HIV Env, isolate CNE17 it was 0.031 µg/mL; in experiment [6], 0.006 µg/mL; in [7] it was 0.118 µg/mL; in [8], 0.026 µg/mL; in experiment [9] it was 0.242 µg/mL. Further, the “IC80 (µg/ml) with constrains” value in experiment [10] and in experiment [11] was greater than 100 µg/mL each time.

B4: ePGDM5 (antibody, V domains shown)
VH: QAQLVQSGPEVRKPGTSVKVSCKNPGNTLTTYDLHWVRQVPGQGLQWMGWISHEGDKKVIVERFKAKVTIDWDRSTNTAYLQLSGLTSEDTAVYYCAKGSKHRLRDYALYDEDGALNWAVDVDYLANLEFWGQGTAVTVSS
VL: DFVLTQSPLSLSVTPGESASISCKSDHSLQHGDRNNYLAWYVQKPGRSPQLLIDLASERASGVPDRFSGSGSRKDFTLKIDRVEAEDVGTYYCMQGRESPWTFGQGTKVDIK
As for B4, the “IC80 (µg/ml) with constrains” value in experiment [1] is 0.035 µg/mL; in experiment [2], greater than 100 µg/mL; in experiment [3], greater than 100 µg/mL; in experiment [4], 0.021 µg/mL; in [5], 0.015 µg/mL; with HIV Env, isolate CNE30, greater than 100 µg/mL. Also, the “IC80 (µg/ml) with constrains” value in the experiment with HIV Env, isolate TRO.11 worked out at 1.26 µg/mL; with HIV Env, isolate CNE17, 0.028 µg/mL; in [6], 0.006 µg/mL; in experiment [7] it was 0.035 µg/mL; in [8], 0.026 µg/mL; in experiment [9], 0.065 µg/mL. The “IC80 (µg/ml) with constrains” value is 75.6 µg/mL in experiment [10] and greater than 100 µg/mL in [11].
